Literature values as cited in paper PMC8093553.

Molecular target: transferrin receptor (Homo sapiens) (UniProt P02786)
Sequence (P02786 101-760): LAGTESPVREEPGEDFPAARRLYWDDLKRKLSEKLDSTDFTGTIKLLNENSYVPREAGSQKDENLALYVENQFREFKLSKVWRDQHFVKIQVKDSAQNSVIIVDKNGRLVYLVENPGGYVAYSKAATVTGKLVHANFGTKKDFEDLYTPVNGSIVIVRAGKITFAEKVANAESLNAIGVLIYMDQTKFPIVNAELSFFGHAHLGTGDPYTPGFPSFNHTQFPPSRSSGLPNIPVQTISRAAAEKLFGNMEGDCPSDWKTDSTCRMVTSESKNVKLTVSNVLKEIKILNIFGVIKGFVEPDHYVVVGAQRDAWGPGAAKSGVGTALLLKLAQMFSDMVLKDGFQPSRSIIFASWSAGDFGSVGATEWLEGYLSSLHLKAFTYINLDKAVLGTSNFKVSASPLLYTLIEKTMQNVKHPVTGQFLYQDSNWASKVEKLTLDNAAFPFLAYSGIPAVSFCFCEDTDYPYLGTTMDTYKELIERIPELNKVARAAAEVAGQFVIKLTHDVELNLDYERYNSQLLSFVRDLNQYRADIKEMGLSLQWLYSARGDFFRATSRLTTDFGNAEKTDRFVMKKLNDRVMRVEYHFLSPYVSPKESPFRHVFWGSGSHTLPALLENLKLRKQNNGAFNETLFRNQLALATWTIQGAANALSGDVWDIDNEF

T7 peptide
Kd: 10 nM
